The nature of this data set: label from the status in PepcDB records.
Take “MSYVLLLLGFALLIKGADFFVDGSSSIARLLNVSPLLIGLTIVAFGTSSPEATASIIAALNGNPDVALGNVIGSNMFNITLVVGLTALLSPLIVTNATLRKEIPFTLLASIALYIFINDQMIEGAVESTLSRSEGLILLLIFCVFLYYIFEVARTSPREQKIVQDFAIKPTWRKNIFLSILGLAMIIGGGELVIRHSTAIAFSHGMSETLVGLTIVAIGTSLPELVTSLTAALKKESEIALGNIVGSSIFNIFFVLGTAATITPMHVDSRVVVDLLLLIFLTLLLLVFSRTRYTVGKYEGLILASFYIGYMVYIIWRN”: the protein production entry is reported as “failed”.

On to “MSISISSIPDLTTVRARHPEAIAEAAARRVRRPLIGDSGRLMIVAADHPARGALGVGDRGLAMANRADLLERLCTALSRPGVDGVLATADVLEDLLLLGVLENKVVMGSMNRGGLAGAAFEMDDRFTGHRAEDIARLRFDAGKLLLRIDYDDPGSLTTMEASARAVDAMAARELPLFVEPFISRRIDGRVRNDLSAEAVTRSVAIASGLGGTSAYTWLKLPVTRNPDDMAEVLETSTLPAVLLGGDIGGSPADQTAAYERWRKALRLPTVQGMVVGRSLLYPAGGSVEEAVDTAVGLL”, for which the protein production result was “failed”.

For the sequence “MVKESGMASLLLENPYYGYRKPKDQLRSSLKNVSDLFVMGGALILESAALLHWLERDGFWPLGMTGISMGGHMASLAVTNWPKPIPLIPCLSWTTASSVFTTGVLSRAVNWRELEKQYATHTVYEEEIISMLEYCGTDSFRMGQEFVKNAPGSFDGLDLTQELLQSGQQVALRSSYSGRPASDQDSSVLMGRRERDGLDQMLSAVSSSAPHLDMLHAKSIACGSGQRQSLQRESLCFMKGVMDECTHIANFSVPVDPSLIIIVQAKEDAYVPRTGVRSLQEIWPGCEVRYLNGGHISAYLFKQGLFRQAIYDAYDRFLHKYSSL”, the protein production result is “not failed”.

“MYIEMAQQQQQSGSDNSMAPVWIVILLFITAYFVWALAHQYIVSFVFTINIWQARLVNLFLNNQLLANQIYLMQTLDPNTVNWDQMVTVMRAVGDYMRYPVICILVVLAFVLYNSNVTLKYRKTYDMKSLRAQEQFNWPAIMPIVKEDLVSQDVNKGPWAMALTPMEFARKYNLLRKDDALLDNPVPGEEMTAGIRRGDAKRVFTMQLGPYWDGFERCSPQAYALSAVFMARMNRDRDAANNILKVLDKTFVDGKPDFSVARPVMKKYQNSELVQEVVAKHAYVLTVIASLLEAAREDGVVPSSEFLWLKPVDRRLWYMLNCVGRQTPYSEVAGPFAHWKAEKEMGRRSLVPMIDEAIRALEIAVKEVRLTPRQMEELEP”: the protein production result was “failed”.

On to “MNLTFDYTKEPSRDVFCIDVKSFYASVECVERGLDPLKTMLVVMSNSENSGGLVLAASPMAKKVLGISNVTRKNEVPDHPNLIIVPPRMKLYMKKNQEINNLYKRFVSDEDHSVFSVDESFLDVTASLTYFKCDTAYKLAKIIQRVIYNHMGLYVTIGIGENPLLAKLALDNEAKNAPGFVAEWRYEDVPEKVWPISPLTEFCGIGNRMAARLKKLGIRSIYDLAHIEPYMLKERFGIMGLQLYAHSWGIDRSFLGQKAGRPTEKSFGNSQVLPKDYANKEQIKLVLKELSDQVASRLRMASCQTTCVSLFVGYSKGQTDKYGQTGWRRQMKVEPSNNTKVLTEHVLRLFEENYAPGVDVRNLGVSYGRLVWNKNLQLDLFSVPEEQIHETDMYFLIDKIRQKFGFKALIHASSLMEGATAISRASLVGGHAGGTVGLGTTK”, for which the protein production entry is listed as “failed”.

For “MSHAVANKTETEAAPNSSLKQSAAPQPANSHDAKLLNGTLARTNGLTHAASVATSSSGSYGSSSAAGSNAGSGGPTSSASLSIAAGVASSTALPLPPSSNGLQMPYERFRADDTSYVPIAQFYAGRSVFITGGTGFMGKVLVEKLLRSCPEIRNIYLLIRPKRGQEVSARLTELLNAPLFESLRQEKPKELSKVIPISGDITSEELGISEKDQNLLCRNVSVVFHSAATVKFDEKLKLSVTINMLGTKRLVELCHRMLSLDALIHVSTAYCNCDRTDVSEVIYAPPYNPDDIISLINWLPEDILDQLTPRLIGKRPNTYTFTKALAEHMLLKEAGNLPVAIVRPSIVTASLNEPFAGWVDNFNGPTGLVSALAKGMFRTMMCEKNYVADMVPVDIVINLMIAAAWRTATRKSNNLLIYNCCTGQRNPIIWSEFVKHAMTSVRKHPLEGCLWYPTGDLRMNRPMNTLNCIAKHFLPAYILDGVARIMGKKPFVVNVQNKIAKAVECLEYFATRQWRFKDDNVHALLHTLSPKDREIFVFDVRHINWDKYVERYVLGFREFLFKQRPESLPASRKRMLRLYYLHQLTKLVAVLLTWRFLMSRSKRLNDLWSSFLENALRMARLIPFL”, the protein production result is listed as “failed”.

Regarding “MSVWLLQMKTNAIITDITKSIVKMDRILVYRHTNPDPDAIGAQFGLVALLKAAYPEKLVVAMAPVPGHLAWIDTTDEQLVTPQATDLVIAVDCANHERLAGELPTGAFVIKIDHHPNHDPYGQLNWVDETYSSCSEMIYELAQAGCFTVTAAVATKLYAGIIGDTVRFSTPETSTRTLKIASALAATDIDIATISHHEMDLTPALSKLYGYVLSEQTIEPSGLAHVVLPQRIFSDLSLEYGDEDALVPLPGNLTTVKVWLFFIETPQGQYRVHFRSKAINVNAVAKAFNGGGHPLASGAFVPDLATVGQVIEQMQAQVLAATAVDLEHHHHHH”, the protein production entry is “failed”.

Take “MTKVLILGANGRIARIVEQRLLAETDVQLTLVLRNAGRLLVTSPERETVIQGDVSDSQLLDTVMPNQDIVYANLAGNMALLAQTIITSMNRNHVPHLIWVTGSGLYHETPNPFGAWVEQVVGHAAKNDTRHAARIIESSDIPATIIRAAYMTDDTKIDYELTYKGERFKGTMISRASIADLIMKIIAEPTAYENTSLGIAQPGTDNMLPQVKLMAQHR”: the protein production result is given as “failed”.

Turning to “MGHHHHHHENLYFQSHINEQEREIEKLKRQMAEYGAIIKSLQFRQNSLEDTFIPDLTPKVEPSVNPTGCLLGSNAVHLMRDIKKECDYLGIPDPVPATKPTTQAQDDSQKKAKRSCFGRLFTGPFRRGTSAMKTADEYEKDDRLEELYAQLERDPDP”, the protein production entry is recorded as “failed”.

On to “MGSRLAESSTPMKACEEVGRPSFTSEQTASSCVIDVRDNARISSASSDGTEVESVGTAIKGELDRTARPTFTAGKNKSVRFECDLDQSNSSNSSENGSSRKPEMGGKICFTVSSPNPTPLKLSDEMQTPGTIYPANMESGGRGRPRIRSQFVHSVSNIMENASLYKVYKDSHEGLDYEEQIEAETPSSETYGEKVEESSDEKLSKFEASFSPWLNQINENIAALNERTPGVGVITPGDRPIIGLVAAQWIENEQTEISPKMWDGNGIPNSTTKYKEDQKVSWHATPFEVRLEKALSEEGGQSLFPQRKLEVMMEEVEGDTDISQLHHSVQPNSVVSF”, for which the protein production result is recorded as “failed”.

For “MKNFLETIEDMILIINREGRLLYANTAVPKKLGYPHEELMSMHILTITSAGKMAEGEKILAELFAGKKESLPLSLEKKEGTSIPAKARIWQGKWHNEPCLFAIIKDLSKEERASSPPFLEHHHHHH”, the protein production result is “not failed”.

Regarding “MGHHHHHHSHMSNAEDIRDLVVTFLEGLRKRSKYVVALQDNPNPAGEESGFLSFAKGDLIILDHDTGEQVMNSGWANGINERTKQRGDFPTDCVYVMPTVTMPPREIVA”, the protein production entry is on record as “failed”.

Consider “MAGASLFTLLDDIATLLDDVSILTKVAAKKTAGVLGDDLALNAQQVTGVTADRELPVVWAVAKGSLVNKVILVPAALAISALEAWLRGRGYNVPLVMPLMMIGGAYLCFEGVEKLAHKFLHSEEEDAQRHAERTRVLADEAVDVVALEKDKVKGAIRTDFILSAEIIVLSLGVVAGVSFGQQVAVLVAIALAMTIGVYGLVAGIVKLDDLGLYLSKKGAALAALGRGILVAAPWLMKFLSVAGTLAMFLVGGGILVHNIPTLHHLVVDLAKASGSLGWLVEALGNMLVGVVAGAVVLAAVTGFQKLRGNRPRTDSVQSLRRQAKSRTG”, for which the protein production result is listed as “failed”.

Regarding “MAPGAAQELQAKLAEIGAPIQGNREELVERLQSYTRQTGIVLNRPVLRGEDGDKAAPPPMSAQ”, the protein production result was “failed”.

As for “NAKAESVSSGEFNRLRLALLALEARHSKRLGVLILDEIDSNLSGEESEGVARVLQELSRSYQILAISHQPHMPSYAHRHFLVKKEAKGSTIERLDRE”, the protein production entry is listed as “failed”.

As for “MPKSKEMEEEMKENSQDKNFMYKLAEFIVDKRNLFFLIYIIALVFCIFSRNWVKVENDVTKYLPDSTETRQGLTVMNDQFVTYGTAQVLLANISYDRAQEAADMIEDINGVTSVTFDNTEDHYKGTSALLDVTFDGEEEDQISIDAMNEIKDKLTGYDVYYSTSVANDDSANLESEMQVVTAIAAVIIVVVLLLTSKSYAEVPVLLITFIAAALLNMGTNFLLGTISFISNSVTIVLQLALAIDYAIILCHRYTEERENLPAREATITALSKAIPEISSSSLTTVSGLLALAFMQFKIGEDLAVVLIKAIILSLISVFTLMPGLIMVFSKWMDKTVHKNLIPSISAVGKFAIKTKYIIPPIFAAVIIVACVFANMCPYCFSTGSTSTPRKSESTIAQEKIDSTFGSRNMIALVVPAGNYEAEKNLLADLDACDEVKSTQGLANTEAMDGYMLTDSLTPREFSELVGLDYEVAQLLYSAYAINQENYGEVINSSSKYSVPLIDMFEFLLDEIDKGYVTLEGDLKDQMDDLSGQLDKALLQLKTDDYSRLVVYLNLPEEGDETFAFLDRVHEMMAKYYTDNYYVVGNSTSDYDLSSSFSRDNLVISILSALFVIIILLFTFKSAGLPVLLILVIQGSIWINFSFPYLMDSPLYFLGYLVVNSIQMGANIDYAIVISSRYDDLKKQLPIKEAIIETLNQAFPTIITSGSILAAAGILISFLSTNGVISAIGTCLGRGTIISIILVMGVLPQILYLGDVIIEKTRFSINTDNLIQNTGGTMVINGRMRGYVSGIIDAEIHGVIKGEVKGQIDVNNIDVIKKEEPEDGGDGNEEA”, the protein production entry is “failed”.

Take “MNKKRTVDLIHGPILPSLLSFTFPILLSNIFQQLYNTADVLIVGRFLGQESLAAVGATTAIFDLIVGFTLGVGNGMGIVIARYYGARNFTKIKEAVAATWILGALLSILVMLLGFLGLYPLLQYLDTPAEILPQSYQYISMIVTCVGVSFAYNLFAGLLRSIGDSLAALGFLIFSALVNVVLDLYFITQLHLGVQSAGLATIISQGLSAVLCFYYIRKSVPELLPQFKHFKWDKSLYADLLEQGLAMGLMSSIVSIGSVILQFSVNTFGAVIISAQTAARRIMTFALLPMTAISASMTTFASQNLGAKRPDRIVQGLRIGSRLSISWAVFVCIFLFFASPALVSFLASSTDGYLIENGSLYLQISSTFYPILSLLLIYRNCLQGLGQKILPLVSSFIELIGKIVFVVLIIPWAGYKGVILCEPLIWVAMTVQLYFSLFRHPLIKEGKAILATKVQS”: the protein production result is on record as “failed”.

Regarding “MARIIRRPLNLTAAVRFRLSPLSPFSGNSGSINSETTSWSELIRVPSLVEGCDYKHWLVLMKPPNGYPTRNHIVQSFVETLAMALGSEEEAKRSIYSVSTKYYYAFGCRIHEPLTYKIRSLPDVKWVLPDSFIVDGDNRYGGEPFVDGEVVPYDEKYHADWLRDQTDEDAKSGVVKKKHRRKRKKKLI”, the protein production result was “failed”.

Regarding “MAVPPVEMYSGSFWNRMRKPLPLRTQVIRFTVVFVIVSFILAVALQITHERMPDPKVTKPLPDLGFELLTKISFLSVVTDVLIAFLSLLSFFTLWKLYLLHRHCVGSGEPELPCNIPGVSRFFLSVWLCKENCRIELRNIHTIAWIRFITSYALLLLFRSLVIVMTSMPTPVDKCQDPPKIENPVKNVILTVLTAGGGSIHCGDLMYSGHTVILTLHLMFHWIYGAMVHWSFRPVVTVVAIFSYYCIVASRSHYTDDVLVAIYLTIATFIAVGHNADGAPWQLQLFIRWLPCCGANSREVTEDSQPVMVAFKSEAVDELRERDDSAGLSGEVSTNEVVSHHHHHH”, the protein production entry is reported as “failed”.

“MNEFAQSPRSCVLGCSGLGYSVRGTPLLSDVDLSIATGETLAVVGPNGSGKSTLLKLLAGIQKPGSGAVRLGEQALAAMSRRDVARLLAVVEQQAETSDAVTVLDAVELGRTPWLSALEPWSANDDAIVRQALQDVDMLHMQKRAWHTLSGGERQRVHIARALAQRPQILLLDEPTNHLDIQHQLTILGLVRALPVTTVIALHDLNQALDCDRVAVMEKGRLVALGTPVEVLTPKRLLSTFGVVAHWLTDPFDGAKILRLRSR”: the protein production entry is on record as “failed”.

(Values after a protein production outcome set (Wang et al. 2014).)
